Experiment: yeast display, Sf9 membrane polyspecificity reagent, FACS + sequencing; frameworks hold sequencing errors
Outline: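 After 36–48 hours of galactose induction, yeast (Saccharomyces cerevisiae BJ5465) displaying a synthetic nanobody library were stained at 4 °C for 1 hour with 10% biotinylated, detergent-solubilized Sf9 membrane reagent. Streptavidin microbeads enriched the stained cells before FACS sorting into low and high (top ~1%) gates on anti-HA and streptavidin fluorescence. Each clone's polyreactivity label reflects its gate of origin.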

Sequence | polyreactivity (PSR sort gate)
QVQLVESGGGLVQAGGSLRLSCAASGYIFVRNAMGWYRQAPGKERELVAAISGSGGSTYYADSVKGRFTISRDNAKNTVYLQMNSLKPEDTAVYYCAADYATVTWRGIAYDYWGQGTQVTVSS | low polyreactivity
QVQLVESGGGLVQAGGSLRLSCAASGYIFYDNAMGWYRQAPGKDREFVSTYYADSVKGRFTISRDNAKNTVYLQMNSLKPEDTAVYYCAAVYSHEGYCWGQGTQVTVSS | low polyreactivity
QVQLVESGGGLVQAGGSLRLSCAASGYIFYENAMGWYRQAPGKERELVAAIRFTGGSTYYADSVKGRFTISRDNAKNTVYLQMNSLKPEDTAVYYCSKSYPDTQRYQYPRGWELDYWGQGTQVTVSS | low polyreactivity
QVQLVESGGGLVQAGGSLRLSCAASGYIFYEYAMGWYRQAPGKERELVAAISRRGGRTYYADSVKGRFTISRDNAKNTVYLQMKSLKPEDTAVYYCATRVIYGHSVGYWGQCTQVTVSS | high polyreactivity
QVQLVESGGGLVQAGGSLRLSCAASGYIFYFNAMAWYRQAPGKEMELVAVISDRDDSTYYADSVKGRFTISRDNAKNTVYLHMNSLKPEDTAVYYCAADGDTYYNYYHWGQGTQVTVSS | low polyreactivity
QVQLVESGGGLVQAGGSLRLSCAASGYIFYRNAMGWYRQAPVKEREFVAAISSSGVSTYYADSVKGRFTISRDNAKNTVYLQMNSLKPEDTAVYYCAASYLTWKRRYDYWGQGTQVTVSS | high polyreactivity
QVQLVESGGGLVQAGGSLRLSCAASGYIIWDYAMGWYRQAPGKEREFVATISRSVGSTYYADSVKGRFTISRDNAKNTVYLQMNSLKPEDTAVYYCAAVTWGEGFDYWGQGTQVTVSS | low polyreactivity
QVQLVESGGGLVQAGGSLRLSCAASGYILDRNAMGWYIQAPGKEREFVAVISWGGTRTYYADSVKGRFTISRDNAKNTVYLQMNSLKPEDTAVYYCARYPYYYGYAGRYDYWGQGTQVTVSS | high polyreactivity
QVQLVESGGGLVQAGGSLRLSCAASGYILPHNAMGWSRQAPGKDGEMVAAITSSGGSTYYADSVKGRVTISRDNAKNTVYLQMNSLKPEDTAVYYCNTDQYSPYEYSSFDSWGQGTQVTVSS | low polyreactivity
QVQLVESGGGLVQAGGSLRLSCAASGYILYANAMGWYRQAPGKERELVASITFGDDSTYYADSVKGRFTISRDNAKNTVYLQMNSLKPEDTAVYYCNADHKVEVEDDYWGQGTQVTVSS | low polyreactivity
QVQLVESGGGLVQAGGSLRLSCAASGYILYGNTMGWYRQAAGKERELVAVISGGGSTNYADSVKGRFTISRDNAKNTVYLQMNSLKPQDTAVYYCAVKTNQAGYDYWGQGTQVTVSS | low polyreactivity
QVQLVESGGGLVQAGGSLRLSCAASGYISNAMGWYRQAPGKERELVAAISRSGGSTYYADSVKGRFTISRDNAKNTVYLQMNSLKPEDTAVYYCAGDSTYHARRLDYWGQGTQVTVSS | low polyreactivity
QVQLVESGGGLVQAGGSLRLSCAASGYISWAYVMGWYIQAPGKERELVAAISSGTSTYYADSVKGRFTISRDNAKNTVYLQMNSLKPEDTAVYYCAAYYYSYPTNGGYGYWGQGTQVTVSS | low polyreactivity
QVQLVESGGGLVQAGGSLRLSCAASGYIVLVYAMGWYRQAPGKERELFASITRGTRTYYADSVKGRFTISRDNAKNTVYLQMNSLKPEDTAVYYCAAEHSGYPVAFYITGYGYDYWGQGTQVTVSS | low polyreactivity
QVQLVESGGGLVQAGGSLRLSCAASGYIYAYYAMGWYRQAPGKERELVAAITGRGDTTYYADSVKGRFTISRDNAKNTVYLQMNSLIPEDTAVYYCNAEKPTYYYVPGKYDVDYWGQGTQVTVSS | low polyreactivity
QVQLVESGGGLVQAGGSLRLSCAASGYIYDYNAMGWYRQAPGKERELVAAITFRDGSTYADSVKGRFTISRDNGKNTVYLQMNSLKPEDTAVYYCNRRSQVHSHSKHDDWGQGTQVTVSS | low polyreactivity

Sequence | polyreactivity (PSR sort gate)
QVQLVESGGGLVQAGGSLRLSCAASGYIYGVYAMGWYRQAPGKERELVAAISYGVGSTYYADSVKGRFTISRDNAKNTVYLQMNSLKPEDTAVYYCAAEDTQVRWSPVRPLEYYCGQGTQVTVSS | low polyreactivity
QVQLVESGGGLVQAGGSLRLSCAASGYPFGKYAMGWYRQAPGKERELVASIRSGGSTNYADSVKGRFTISRDNAKNTVYVQMNCLKPEDTAVYYCNTRYRYQYGYDYWWQGTQVTVSS | high polyreactivity
QVQLVESGGGLVQAGGSLRLSCAASGYSFYKYAMGWYRQAPGKERELVAAISYSGGSTYYADSVKGRFTISRDNAKNTVYLQMNSLKPEDTAVYYCAAVGATKGLRYGYWGQGTQVTVSS | low polyreactivity
QVQLVESGGGLVQAGGSLRLSCAASGYTFAGNAMGWYRQAPGKERELVAVITYSGGSTYYADSVKGRFTISRDNAKNTVYSQMNSLKPEDTAVYYCNAVRDRYASDYWGQGTQVTVSS | low polyreactivity
QVQLVESGGGLVQAGGSLRLSCAASGYTFAPYVMGWYRQAPGKERELVARISNNGGSKYYADSVKGRFTISRDNAKNTFYLQMNSLKPEDTAVYYCAADVGLIYFRYYYCGQGTQVTVSS | low polyreactivity
QVQLVESGGGLVQAGGSLRLSCAASGYTFARYAMGWYRQATGKERELVAANTSGDRTNYADSVKGRFTISRDNAKNTVYLQMNSLKPEDTAVYYCNATLYSYDASDYWGQGTQVTVSS | low polyreactivity
QVQLVESGGGLVQAGGSLRLSCAASGYTFASYTMGLYRQAPGKERELVATISRGGGRTYYADSVKGRFTISRDNAKNTVYLQMNSLKPEDTAVYYCATRLYPHQYYYWGQGTQVTVSS | high polyreactivity
QVQLVESGGGLVQAGGSLRLSCAASGYTFDLYAMGWYRQAPGKERELVADISSGGSTNYADSVKGRFTISRDNAKNTVYLQMNSLKPEDTAVYYCAVDADRSLFGQYYVSEYGGGYWGQGTQVTVSS | low polyreactivity
QVQLVESGGGLVQAGGSLRLSCAASGYTFDYNAMGSYRQAPGKERELVADITGSGASTSYADSVKGRFTISRDYAKNTVYLQMNSLKPEDTAVYYCNADDSYFYELYGYWGQGTQVTVSS | low polyreactivity
QVQLVESGGGLVQAGGSLRLSCAASGYTFESYTMGWYRQGPGKERDFVAVISSSDTSTSYADSVKGRFTISRDNAKNTVYLQINSLKAEDTAVYYCAAYSSPYYITYYWYNYDYWGQVTQVTVSS | low polyreactivity
QVQLVESGGGLVQAGGSLRLSCAASGYTFFFNVMGWYRQAPGKERELVAAISYSGGSTNYADSVKGRFTISRDNAKNTVYLQINSLKPEDTAVYYCNARTVSRNGYQDDYWGQGTQVTVSS | low polyreactivity
QVQLVESGGGLVQAGGSLRLSCAASGYTFGFYALGWYRQAPGKERELVAAITVSGGSTYYADSVKGRFTISRDNAKNTVYLQMNSLKPEDTAVYYCAAEVWFYSTFLYDYWGQGTQVTVSS | high polyreactivity
QVQLVESGGGLVQAGGSLRLSCAASGYTFGNYAMGWYRQAPGKERELVAGISWSGGSTYYADSVKGRFTISRDNAKNTVYLQMNSLKPEDTAVYYCATRVQGYHNGWYDYWGQGTQVTVSS | high polyreactivity
QVQLVESGGGLVQAGGSLRLSCAASGYTFGSNAMGWYRQAPGKERELVAAISTNGGRTNYADSVKGRFTISRDYAKNSVYLQMYSLIPEDTAVYYCNTRLRVRYYLSGFDYWGQGTQVTVSS | high polyreactivity
QVQLVESGGGLVQAGGSLRLSCAASGYTFGWYAMGWYRQAPGKERELVAAITSDGSTYYADSVKGRFTISRDNEKNTVYLQMNSLIPVDTAVYYCAADATFDSDWGQGTQVTVSS | low polyreactivity
QVQLVESGGGLVQAGGSLRLSCAASGYTFGYYTMGWYRQAPGKERELVASIDSGGGTYYADSVKGRFTISRDNAKNTVYLQMNSLKPEDTAVYYCAARSAILKSGYLMDYWGQGTQVTVSS | low polyreactivity
